According to US20220177599A1:

How the values were obtained:
[1] = molecular target: Recombinant human EpCAM monomer protein (R&D systems, cat. no. 9277-EP), conjugated with Alexa Fluor 647 (human) (UniProt P16422); test: saturation binding by flow cytometry: CAR-expressing Jurkat T cells stained with serially diluted Alexa Fluor 647-conjugated EpCAM, one-site nonlinear regression of MFI
[2] = molecular target: Recombinant human EpCAM monomer protein (R&D systems, cat. no. 9277-EP), conjugated with Alexa Fluor 647 (human) (UniProt P16422); test: flow cytometry saturation binding: CAR-expressing Jurkat T cells stained with serially diluted AF647-conjugated EpCAM, MFI fitted with the one-site nonlinear regression model
[3] = molecular target: EpCAM on tumor cells (SK-BR3, Capan-2, HT-29, SNU-638, MKN-45, MDA-MB-231, SW-1990) (human) (UniProt P16422); test: cell-based or functional assay
[4] = molecular target: Recombinant human EpCAM monomer protein (R&D systems, cat. no. 9277-EP), conjugated with Alexa Fluor 647 (human) (UniProt P16422); test: saturation binding by flow cytometry on CAR-expressing Jurkat T cells with Alexa Fluor 647-conjugated EpCAM; reference is C215 CAR
[5] = molecular target: Intercellular adhesion molecule-1 (ICAM-1) on tumor cells (SNU-638, MKN-45) (human) (UniProt P05362); test: cell-based or functional assay
Chain of UniProt P05362 (P05362 28-532): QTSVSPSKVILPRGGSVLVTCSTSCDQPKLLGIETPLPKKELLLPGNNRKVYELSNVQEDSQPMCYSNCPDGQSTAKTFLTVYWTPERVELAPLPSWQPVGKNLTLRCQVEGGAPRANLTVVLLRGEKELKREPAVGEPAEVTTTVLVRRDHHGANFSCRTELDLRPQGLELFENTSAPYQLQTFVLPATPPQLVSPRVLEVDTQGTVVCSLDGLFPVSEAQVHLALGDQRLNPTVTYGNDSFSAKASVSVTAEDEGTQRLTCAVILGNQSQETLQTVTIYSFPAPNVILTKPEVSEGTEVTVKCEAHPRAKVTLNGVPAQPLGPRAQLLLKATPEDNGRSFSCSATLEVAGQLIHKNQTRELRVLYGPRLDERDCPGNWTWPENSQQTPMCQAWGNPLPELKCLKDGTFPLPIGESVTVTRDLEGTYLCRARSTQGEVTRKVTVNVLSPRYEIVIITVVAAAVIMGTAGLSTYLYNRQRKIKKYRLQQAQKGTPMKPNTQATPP

Kd [1] [nM]	Kd [2] [nM]	fold difference of KD against C215 CAR [4] [fold]	Molecule	lysis of SNU-638 and MKN-45 wild-type cells at 48 hours (bioluminescence-based cytotoxicity assay, E:T 1:1) [3] [%]	killing of MKN-45 cells at 48 hours (bioluminescence-based cytotoxicity assay, E:T 1:1) [5]	specific lysis of SNU-638 cells at 48 hours (bioluminescence-based cytotoxicity assay, E:T 1:1) [5] [%]
4	3.95	–	C215 CAR (anti-EpCAM chimeric antigen receptor with the scFv of mouse monoclonal antibody C215, CD28-CD3ζ 2nd generation backbone)	–	–	–
250	253	> 60	UBS54 CAR (anti-EpCAM chimeric antigen receptor with the scFv of monoclonal antibody UBS-54, CD28-CD3ζ 2nd generation backbone)	90	–	–
–	–	–	F292A CAR (ICAM-1 CAR with the LFA-1 αL I domain carrying the F292A mutation, 4-1BB-CD3ζ) (receptor, part only; not given: hinge, transmembrane, signalling domains, tag, not shown: large carriers) chain, part: VDLVFLFDGSMSLQPDEFQKILDFMKDVMKKLSNTSYQFAAVQFSTSYKTEFDFSDYVKWKDPDALLKHVKHMLLLTNTFGAINYVATEVFREELGARPDATKVLIIITDGEATDSGNIDAAKDIIRYIIGIGKHFQTKESQETLHKFASKPASEFVKILDTAEKLKDLFTELQKKIYVIE	–	0	40
